Experimental data reported in the RNAGym collection of RNA variant scans (doi:10.7554/elife.80360).

B1: Hairpin Ribozyme (parent)
chain: GUCCUCUUUCACGUGCGCGUGAAAGAGAGAAGUGAACCAGAGAAACACACGUUGUGGUAUAUUACCUGGUA

Variants of: B1
Experiment: self-cleavage, relative activity (ratio to wild type); higher = more cleavage; co-transcriptional

Variant	self-cleavage
GUCUUCUUUCACGUGCGCGUGGAAGAGAGAAGUGAACCAGAGAAACACACGUUGUGGUAUAUUACCUGGUA	0.236
GUCGUCUUUCACGUGCGCGUGAAAGAGAGAAGUGAACCAGAGAAACACACGUUGUGGAAUAUUACCUGGUA	0.108
GUCGUCUUUCACGUGCGCGUGAAAGAGAGAAGUGAACCAGAGAAACACACGUUGUGGCAUAUUACCUGGUA	0.403
GUCGUCUUUCACGUGCGCGUGAAAGAGAGAAGUGAACCAUAGAAACACACGUUGUGGUAUAUUACCUGGUA	0.0761
GUCGUCUGUCACGUGCGCGUGAAAGAGAGAAGUGAACCAGAGAAACACACGUUGUGGUAUAUUACCUGGUA	0.0927
GUCUUCUUUCACGUGCGCGUGAAAGAGAGAAGUGACCCAGAGAAACACACGUUGUGGUAUAUUACCUGGUA	0.145
GUCUUCUUUCACGUGCGCGUGAAAGAGAGAAGUGAGCCAGAGAAACACACGUUGUGGUAUAUUACCUGGUA	0.465
GUCUUCUUUCACGUGCGCGUGAAAGAGAGUAGUGAACCAGAGAAACACACGUUGUGGUAUAUUACCUGGUA	0.13
GUCUUCUUUCACGUGCGCGUGAAAGAGUGAAGUGAACCAGAGAAACACACGUUGUGGUAUAUUACCUGGUA	0.178
GUCGUCUUCCACGUGCGCGUGAAAGAGAGAAGUGAACCAGAGAAACACACGUUGUGGUAUAUUACCUGGUA	0.274
GUCGUCUUGCACGUGCGCGUGAAAGAGAGAAGUGAACCAGAGAAACACACGUUGUGGUAUAUUACCUGGUA	0.164
GUCGUCUUUCACGUGCGCGUGAAAGAGAGAAGUGAACCAGAGAAACACACGUUGUGGUAUAAUACCUGGUA	0.191
GUCGUCUUUCACGCGCGCGUGAAAGAGAGAAGUGAACCAGAGAAACACACGUUGUGGUAUAUUACCUGGUA	0.125
GUCGUCUUUCACGUGCGCGUGAAAGAGAGAAGUGAACCAGAGAAACACACGUUGUGUUAUAUUACCUGGUA	0.151
GUCUUCUUUCACGUGCGCGUGAAAGUGAGAAGUGAACCAGAGAAACACACGUUGUGGUAUAUUACCUGGUA	0.156
GUCGUCUUUCACGUGCGCGUGAAAGAGAGAAGAGAACCAGAGAAACACACGUUGUGGUAUAUUACCUGGUA	0.154
GUCGUCUUUCACGUGCGCGUGAAAGAGAGAAGUGAACCAGAGAAACACACGUUGUGGUAUAUGACCUGGUA	0.217
GUCGUCUUUCACGUGCGCGUGAAAGAGAGAAGUGAACCAGAGAAACACACGUUGUGGUAUAUAACCUGGUA	0.252
GUCUUCUUUCACGUGCGCGUGAGAGAGAGAAGUGAACCAGAGAAACACACGUUGUGGUAUAUUACCUGGUA	0.299

Variant	self-cleavage
GUCUUCUUUCACGUGCGCGUGAUAGAGAGAAGUGAACCAGAGAAACACACGUUGUGGUAUAUUACCUGGUA	0.315
GUCGUCUUUCACGUGCGCGUGAAAGAGAGAAGUGAACCAGAGAAACACACGUUGUCGUAUAUUACCUGGUA	0.111
GUCGUCUUUCACGUGCGCGUGAAAGAGAGAAGUGAACCAGAGAAACACACGUUGUGGUAUAUUACCAGGUA	0.111
GUCUUCUUUCACGUGCGCGUGAAAGAGAGAAGUGGACCAGAGAAACACACGUUGUGGUAUAUUACCUGGUA	0.304
GUCGUCUUUCACGUGCGCGUGAAAGAGAGAAGUGAACCAGAGAAACACACAUUGUGGUAUAUUACCUGGUA	0.245
GUCGUCGUUCACGUGCGCGUGAAAGAGAGAAGUGAACCAGAGAAACACACGUUGUGGUAUAUUACCUGGUA	0.144
GUCUUCUUUCACGUGCGCGUGAAAGAGAGAGGUGAACCAGAGAAACACACGUUGUGGUAUAUUACCUGGUA	0.0741
GUCUUCUUUCCCGUGCGCGUGAAAGAGAGAAGUGAACCAGAGAAACACACGUUGUGGUAUAUUACCUGGUA	0.191
GUCGUCUUUCACGUGCGCGUGAAAGAGAGAAGUGAACCAGAGAAACACACGUUGUGGUAUAUUACCUAGUA	0.084
GUCGUCUUUCACGUGCGCGUGAAAGAGAGAAGUGAACCAGAGAAACACACGUUGUGGUAUAUUACCUGGCA	0.214
GUCUUCUUUCACGUGCGCGUGAAUGAGAGAAGUGAACCAGAGAAACACACGUUGUGGUAUAUUACCUGGUA	0.295
GUCGUCUUUCACGUGCGCGUGAAAGAGAGAAGUGAACCAGAGAAACACACGUUGCGGUAUAUUACCUGGUA	0.122
GUCGUCUUUCACGUGCGCGUGAAAGAGAGAAGUGAACCAGAGAAACACACGUUGAGGUAUAUUACCUGGUA	0.119
GUCGUCUUUCACGUGCGCGUGAAAGAGAGAAGUGAACCAGAGAAACACACGUAGUGGUAUAUUACCUGGUA	0.15
GUCGUCUUUCACGUGCGCGUGAAAGAGAGAAGUGAACCAGAGAAACACACGUCGUGGUAUAUUACCUGGUA	0.264
GUCGUCUUUCACGUGCGCGUGAAAGAGAGAAGUGAACCAGAGAAACACACGUGGUGGUAUAUUACCUGGUA	0.117
GUCGUCUUUCACGUGCGCGUGAAAGAGAGAAGUGAACCAGACAAACACACGUUGUGGUAUAUUACCUGGUA	0.17
GUCGUCUUUCACGUGCGCGGGAAAGAGAGAAGUGAACCAGAGAAACACACGUUGUGGUAUAUUACCUGGUA	0.22
GUCGCCUUUCACGUGCGCGUGAAAGAGAGAAGUGAACCAGAGAAACACACGUUGUGGUAUAUUACCUGGUA	0.112
